Source: patent US6869925 (Amgen, dated 2005)

Assays:
[1] = molecular target: SLPI binding sites on U937 cells (human monocyte cell line; intact cells, PMA-induced cells or plasma membranes) (human); assay: 125I-SLPI saturation binding, U937 cells plus PMA, *SLPI at 320 pM
[2] = molecular target: SLPI binding sites on U937 cells (human monocyte cell line; intact cells, PMA-induced cells or plasma membranes) (human); assay: 125I-SLPI saturation binding, intact U937 cells, *SLPI at 5120 pM
[3] = molecular target: SLPI binding sites on U937 cells (human monocyte cell line; intact cells, PMA-induced cells or plasma membranes) (human); assay: competition with 125I-SLPI, intact U937 cells, cold SLPI at 0.00 nM
[4] = molecular target: SLPI binding sites on U937 cells (human monocyte cell line; intact cells, PMA-induced cells or plasma membranes) (human); assay: 125I-SLPI saturation binding, U937 cells plus PMA, *SLPI at 640 pM
[5] = molecular target: SLPI binding sites on U937 cells (human monocyte cell line; intact cells, PMA-induced cells or plasma membranes) (human); assay: competition with 125I-SLPI, intact U937 cells, cold SLPI at 0.024 nM
[6] = molecular target: SLPI binding sites on U937 cells (human monocyte cell line; intact cells, PMA-induced cells or plasma membranes) (human); assay: competition with 125I-SLPI, U937 plasma membranes, competitor at 2750 nM
[7] = molecular target: SLPI binding sites on HuT78 cells (human T cell line) (human); assay: 125I-SLPI saturation binding, intact HuT78 cells, *SLPI at 20,480 pM
[8] = molecular target: SLPI binding sites on HuT78 cells (human T cell line) (human); assay: competition with 125I-SLPI, intact HuT78 cells, cold SLPI at 2.6 nM
[9] = molecular target: SLPI binding sites on U937 cells (human monocyte cell line; intact cells, PMA-induced cells or plasma membranes) (human); assay: competition with 125I-SLPI, intact U937 cells, cold SLPI at 0.078 nM
[10] = molecular target: SLPI binding sites on U937 cells (human monocyte cell line; intact cells, PMA-induced cells or plasma membranes) (human); assay: 125I-SLPI saturation binding, U937 cells plus PMA, *SLPI at 10,240 pM
[11] = molecular target: SLPI binding sites on U937 cells (human monocyte cell line; intact cells, PMA-induced cells or plasma membranes) (human); assay: competition with 125I-SLPI, U937 plasma membranes, competitor at 2.56 nM
[12] = molecular target: SLPI binding sites on U937 cells (human monocyte cell line; intact cells, PMA-induced cells or plasma membranes) (human); assay: 125I-SLPI saturation binding, U937 cells minus PMA, *SLPI at 320 pM
[13] = molecular target: SLPI binding sites on HuT78 cells (human T cell line) (human); assay: competition with 125I-SLPI, intact HuT78 cells, cold SLPI at 0.80 nM
[14] = molecular target: SLPI binding sites on U937 cells (human monocyte cell line; intact cells, PMA-induced cells or plasma membranes) (human); assay: competition with 125I-SLPI, intact U937 cells, cold SLPI at 26 nM

Sequence of serine leukocyte protease inhibitor (SLPI) (P03973 26-132): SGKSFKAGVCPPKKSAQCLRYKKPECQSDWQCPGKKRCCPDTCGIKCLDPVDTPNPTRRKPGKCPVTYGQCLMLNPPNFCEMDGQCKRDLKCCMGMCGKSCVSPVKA

serine leukocyte protease inhibitor (SLPI) (from UniProt P03973 26-132)
bound pM [1]: 65 pM | bound per free [1]: 0.255 | sites bound per cell (sites per cell) [1]: 3920 | specific cpm [1]: 698 cpm | bound *SLPI (pM) [2]: 379 pM | bound per free [2]: 0.08 | sites bound per cell (sites per cell) [2]: 22800 | specific cpm [2]: 15100 cpm | % *SLPI BOUND [3]: 94% | bound pM [4]: 103 pM | bound per free [4]: 0.192 | sites bound per cell (sites per cell) [4]: 6200 | specific cpm [4]: 1100 cpm | % *SLPI BOUND [5]: 100% | CPM *SLPI BOUND [6]: 1680 cpm | bound pM [7]: 30.3 pM | bound per free [7]: 0.0015 | sites bound per cell (sites per cell) [7]: 1820 | specific cpm [7]: 1210 cpm | % *SLPI BOUND [8]: 56% | % *SLPI BOUND [9]: 101% | bound pM [10]: 274 pM | bound per free [10]: 0.028 | sites bound per cell (sites per cell) [10]: 16500 | specific cpm [10]: 2930 cpm | CPM *SLPI BOUND [11]: 11000 cpm | bound *SLPI (pM) [12]: 101 pM | bound per free [12]: 0.461 | sites bound per cell (sites per cell) [12]: 6080 | specific cpm [12]: 1080 cpm | % *SLPI BOUND [13]: 62% | % *SLPI BOUND [14]: 12%
